Laboratory results as given in US20240262892A1 (NANJING VAZYME BIOTECH, published 2024).
Where two headings read alike, the source gives them in different places.

Tests used:
[1] = target: T1, SARS-CoV-2 RBD (receptor binding domain of spike protein of SARS-CoV-2) (SARS-CoV-2, UniProt P0DTC2 319-541); test: HTRF ACE2/RBD binding assay (665/620 ratio); blocked ligand: ACE2
[2] = target: T1, SARS-CoV-2 RBD (receptor binding domain …)
[3] = target: T1, SARS-CoV-2 RBD (receptor binding domain …); test: ELISA, SARS-CoV-2 RBD coated on the plate, anti-human IgG-HRP, OD450
[4] = target: T2, SARS-CoV-2 S1 (S1 subunit of spike protein of SARS-CoV-2) (SARS-CoV-2, UniProt P0DTC2 14-685); test: ELISA, SARS-CoV-2 S1 coated on the plate, anti-human IgG-HRP, OD450
T2 construct: domain: S1; also called SARS-CoV-2 Spike protein S1 domain

[5] = target: T3, SARS-CoV-2 S1 protein NTD (N-terminal domain of spike protein of SARS-CoV-2) (SARS-CoV-2, UniProt P0DTC2 14-305); test: biolayer interferometry, ForteBio Octet RED96e, NTD 250 nM to 7.81 nM, 1:1 model
T3 construct: also called S1-NTD; NTD of S1 subunit

[6] = target: T3, SARS-CoV-2 S1 protein NTD (N-terminal …); test: ELISA, S1-NTD coated on the plate, antibody at one concentration, anti-human IgG-HRP
[7] = target: T1, SARS-CoV-2 RBD (receptor binding domain …); test: ELISA, S1-RBD coated on the plate, antibody at one concentration, anti-human IgG-HRP
[8] = target: T1, SARS-CoV-2 RBD (receptor binding domain …); remark: listed apart in the source
[9] = target: T1, SARS-CoV-2 RBD (receptor binding domain …); test: HTRF ACE2/RBD binding assay, competition with ACE2

Row | Binder | IC50 [1] | Kd [2] | EC50 [3] | EC50 (read off the curve) [4] | Kd [5] | OD450 [6] | OD450 [7] | Kd [8] | IC50 [9]
1 | Antibody 29-13 (antibody, V domains shown) VH: QITLKESGPTLVKPTQTLTLTCTFSGFSLSTSGVGVGWIRQPPGKALEWLALIYWDDDKRYSPSLKSRLSITKDTSKNQVALTVTNMDPVDTATYYCAHRRPGPGSYYFDYWGQGTLVTVSS VL: not shown | 0.0954 µg/mL | 1.28 nM | 0.00473 µg/mL | – | – | – | – | – | –
2 | Antibody 14-8 (antibody, V domains shown) VH: QVQLVQSGAEVKKPGASVKVSCKASGYTFTGYYIHWVRQAPGKGPEWMGWINPNSGGTNYAQKFQGWVTMTRDTSISAAYMELSRLKFDDTAIYYCAKSGEKVGADLGYYDYGMDLWGQGTTVTVSS VL: SYELTQPPSVSVSPGQTARITCSGDALPKQYAYWYQQKPGQAPVMVIYKDTERPSGIPERFSGSSSGTTVTLTISGVQAEDEADYNCQSVDSSGAYVVFGGGTKLTVL | – | – | – | ~0.1 µg/mL | 7.08 nM | 3.98 | 0.0693 | – | –
3 | Antibody 5-10 (antibody, V domains shown) VH: EVQLLESGGGLVQPGGSLRLSCAASGFTFSSYAMSWVRQAPGKGLEWVSAIVGSGGSTYYADSVKGRFIISRDNSKNTLYLQMNSLRAEDTAVYYCAKSLIYGHYDILTGAYYFDYWGQGTLVTVSS VL: DIQMTQSPSSVSASVGDRVTIPCRASQGIGNWLAWYQQKPGKAPKLLIYAASSLQSGVPSRFSGSGSGTDFTLTISSLQPEDFATYYCQQANSFPPFGQGTRLEIK | – | 4.32 nM | 0.0269 µg/mL | – | – | – | – | – | –
4 | Antibody 8-3 (antibody, V domains shown) VH: EVQLVESGGGLVQPGGSLRLSCAASGITVSSNYMNWVRQAPGKGLDWVSVIYSGGSTFYADSVKGRFIISRDNSKNTLFLQMDSLRVEDTAVYYCARDLVVRGVDIWGQGTMVTVSS VL: DIQLTQSPSFLSASVGDRVTITCRASQGISSDLAWYHQKPGKAPKLLIYAASTLQSGVPSRFSGSGSGTEFTLTISSLQPEDFATYYCQQLNSYRGLIFGGGTKVEIK | 0.109 µg/mL | 1.55 nM | 0.0483 µg/mL | – | – | – | – | – | –
5 | Antibody 29-2 (antibody, V domains shown) VH: QITLKESGPTLVKPTQTLTLTCTFSGFSLSSSGMGVGWIRQPPGKALEWLALIYWNDDKRYSPSLKSRLTITKDTSKNQVVLTLTNMDPVDTATYYCAHTTLYNNCPFDYWGQGTLVTVSS VL: SYVLTQPPSVSVAPGKTARITCGGNNIGSYSVHWYQQRPGQAPVLVIYYDSDRPSGIPERFSGSNSGNTATLTISRVEAGDEADYYCQVWDNSSNHPWVFGGGTKLTVL | 0.117 µg/mL | 0.392 nM | 0.0372 µg/mL | – | – | – | – | – | –
6 | Antibody 12-11 (antibody, V domains shown) VH: QVQVVQSGAEVKKPGASVKVSCKVSGYTLIEISIHWVRQAPGKGLEWMGGFDPEAGETIYAQKFQGRVTMTEDTSTDTAYMEVSSLRSEDTAVYYCATGPAIAAAETNWFDLWGQGTLVTVSS VL: QSALTQPASVSGSPGQSITISCTGTSSDVGSYNYVSWYQQHPGKAPKLMIYDVTKRPSGVPDRFSGSKSGNTASLTISGLQAEDEADYYCSSYTSSSTWVFGGGTKLTVL | – | – | – | ~0.1 µg/mL | 5.82 nM | 3.93 | 0.0638 | – | –
7 | Antibody 12-13 (antibody, V domains shown) VH: QVQVVQSGAEVKKPGASVKVSCKVSGYTLTELSIHWVRQTPGKGLEWMGGFDPEDGETIYAQWLQGRVTMTEDTSTDIAYMELSSLRHEDTAVYYCATGPAIAGAGTNWFDPRGQGTLVIVSS VL: QSALTQPASVSGSPGQSITISCTGTSSDVGGYNYVSWYQQHPGKAPKLMIYDVSKRPSGVPDRFSGSKSGNTASLTISGLQAEDEADYYCTSYTNSSTWVFGGGTKLTVL | – | – | – | ~0.07 µg/mL | 5.61 nM | 3.96 | 0.06 | – | –
8 | Antibody 13-17 (antibody, V domains shown) VH: QDQLVQSGAEVKKPGASVKVSCKVSGYTLPELSLHWVRQPPGKGLEWMGGFDPEDGETIYAQKFQGRVTMTEDTSTDTAYMELSSLRSEDTAVYYCAASTPMGGHTDWLDPWGQGTLVTVSS VL: QSVLTQPPSVSAAPGQKVTISCSGSSSNIGNNYVSWYQQLPGTAPKLLIYDNNKRPSGIPDRFSGSKSGTSATLGITGLQTGDEADYYCGTWDSSLSAGVFGGGTKLTVL | – | – | – | ~0.1 µg/mL | 4.39 nM | 3.91 | 0.0815 | – | –
9 | Antibody 9-1 (antibody, V domains shown) VH: QLQLQESGPGLVKPSETLSLTCTVSGGSISSSTYYWAWIRQPPGKGLEWIGSIYYSGSTYYNPSLKSRVTISVHTSKNQFSLKLTSVTAADTAVYYCARSMGLHDYWGQGTLVTVSS VL: DIQMTQSPSSLSASVGDRVTITCRASQGIGNSLAWYQQKPGRAPKFLLYAASTLESGVPSRFSGSGSGTHFTLTISSLQPEDFATYFCQQYYSTPPYTFGQGTRLEIK | 0.105 µg/mL | 0.835 nM | 0.0886 µg/mL | – | – | – | – | – | –
10 | Antibody 8-1 (antibody, V domains shown) VH: EVQLVESGGGLIQPGGSLRLSCAASGLTVSSNYMTWVRQAPGKGLEWVSVIYSGGSTFYAESVKGRFTISRDNSKNTLYLQMNSLRAEDTAVYYCARDLVVYGMDVWGQGTTVIVSS VL: DIQLTQSPSFLSASVGDRVTITCRASQGISSDLAWYQQKPGKAPKLLIYAASTLQSGVPSRFSGSGSGTEFTLTISSLQPEDFATYYCQQLNSHPLAFGPGTKVDIK | 0.103 µg/mL | – | 0.0506 µg/mL | – | – | – | – | 0.047 nM | –
11 | Antibody 34-2 (antibody, V domains shown) VH: EVQLVESGGGLVQPGRSLRLSCAASGFTFDESAMHWVRQAPGEGLEWVSGISWNSGRIAYADSVRGRFTISRDNAKNSLYLQMNSLRAEDTALYFCALTTSGWFSFDYWGQGTLVTVSS VL: SYVLTQPPSVSVAPGKTARITCGGNNIGSKSVHWYQQKPGQAPVPVIYYDSDRPSGIPERFSGSNSGNTATLTISRVEVGDEADYYCQVWDSSSDRAVFGGGTTLTVL | 0.115 µg/mL | 0.217 nM | 0.0493 µg/mL | – | – | – | – | – | –
12 | Antibody 9-8 (antibody, V domains shown) VH: EVQLVESGGGVVQPGGSLRLSCAASGFTFDDYAIHWVRQAPGKGLEWVSLISGDGGTTYYADFVKGRFTISRDNSKNSLYLQMNSLRTEDTALYYCAKDIPVCSSTICYRFTARLHGMDVWGQGTTVTVSS VL: DIQMTQSPSSLSASVGDRVTITCRASQSISSYLNWYQQKPGKAPKLLIYTASSLQSGVPSRFSGSGSGADFTLTISSLQPEDFATYYCQQRYSTPLTFGGGTKVEIK | – | 4.75 nM | 0.0243 µg/mL | – | – | – | – | – | 4.14 µg/mL
13 | Antibody 14-4 (antibody, V domains shown) VH: QMQLVQSGPEVKKPGTSVKVSCKASGFTFTTSAVQWVRQARGQRLEWIGWIVVGSGNTNYAQKFQERVTITRDMSTSTGYMELSSLRSEDTAVYYCAAPNCNRTSCDDGFDIWGQGTMVTVSS VL: not shown | 0.103 µg/mL | 2.62 nM | 0.0162 µg/mL | – | – | – | – | – | –
14 | Antibody 12-9 (antibody, V domains shown) VH: EVQLVESGGGLVKPGGSLRLSCAASEFTFSSYSMNWVRQAPGKGLEWVSSISSSGSDIYYADSVKGRFTISRDNAKKSLYLQMNSLRVEDTAVYYCATNGGAHSSTWSFYGMDVWGQGTTVTVSS VL: SYELTQPPSVSVSPGQTATITCSGDKLGDKYACWYQQRPGQSPVLVIYQDSKRPSGIPERFSGSNSGNTATLTIGGTQAMDEAAYFCQAWDSNTGVFGGGTKLTVL | – | – | – | ~0.03 µg/mL | 16.7 nM | 3.76 | 0.0764 | – | –
15 | Antibody 12-17 (antibody, V domains shown) VH: EVQLVESGGGLVKPGGSLRLSCAASGFTLNSYSMNWVRQAPGKGLEWVSSISSTSSDIYYADSVKGRFTISRDNAKNSVDLQMNSLRAEDTAVYYCATNGGAHRNTWSFYGMDVWGQGTTVTVSS VL: SYELTQPPSVSVSPGQTASITCSGDKLGDKYASWYQQKPGQSPVLVIYQDTKRPSGIPERFSGSNSGNTVTLTISGTQAMDEADYYCQAWDSSTGVFGGGTKLTVL | – | – | – | ~0.04 µg/mL | 5.49 nM | 3.95 | 0.0641 | – | –
